Assay results reported in publication PMC11737055.

Target: TDP-43 (UniProt Q921F2)
Experiment: anti-GFP co-IP, anti-RFP Western blot
Details: reference: GFP-FMRP wild type; sites S499

FMRP (from UniProt P35922) GFP-FMRP S499A
binding against the reference: weaker
